Consider four molecules from PMC8514121 (Science signaling, 2020).

The data set “crystal structure” concerns the molecule itself. In words: crystal structure.
The data set “cross-linking” concerns the molecule itself. Kind of data set: cross-linking.
The target of data set [1] is T1, Aurora A kinase domain (residues 116 to 389) (human, UniProt O14965 116-389).
T1 sequence (looked up): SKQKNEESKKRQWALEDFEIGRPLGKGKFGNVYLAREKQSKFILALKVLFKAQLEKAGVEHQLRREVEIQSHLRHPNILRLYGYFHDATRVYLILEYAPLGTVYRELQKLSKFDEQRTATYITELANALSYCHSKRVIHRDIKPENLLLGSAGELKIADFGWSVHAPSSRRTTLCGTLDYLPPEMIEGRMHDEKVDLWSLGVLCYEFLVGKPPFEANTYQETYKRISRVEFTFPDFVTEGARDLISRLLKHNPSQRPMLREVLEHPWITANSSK
Kind of data set: crystal structure.

B1: CoAlated unphosphorylated C247V + C319V t-Aurora A (domain or fragment, UniProt Q9ULW0 7-20, looked up)
chain: SYSYDAPSDFINFSSKQKNEESKKRQWALEDFEIGRPLGKGKFGNVYLAREKQSKFILALKVLFKAQLEKAGVEHQLRREVEIQSHLRHPNILRLYGYFHDATRVYLILEYAPLGTVYRELQKLSKFDEQRTATYITELANALSYVHSKRVIHRDIKPENLLLGSAGELKIADFGWSVHAPSSRRTTLCGTLDYLPPEMIEGRMHDEKVDLWSLGVLVYEFLVGKPPFEANTYQETYKRISRVEFTFPDFVTEGARDLISRLLKHNPSQRPMLREVLEHPWITANSSK
modifications: coenzyme A disulfide adduct (CoAlation) on Cys290 on approximately two thirds of the protein; unphosphorylated
On to B1, for which the binding result in the data set “crystal structure” is reported as “binds”.

B2: t-Aurora A C247V + D256N + C319V kinase-dead mutant (Cys290-Cys290 disulfide homodimer) (domain or fragment, UniProt Q9ULW0 7-20, looked up)
chain: SYSYDAPSDFINFSSKQKNEESKKRQWALEDFEIGRPLGKGKFGNVYLAREKQSKFILALKVLFKAQLEKAGVEHQLRREVEIQSHLRHPNILRLYGYFHDATRVYLILEYAPLGTVYRELQKLSKFDEQRTATYITELANALSYVHSKRVIHRNIKPENLLLGSAGELKIADFGWSVHAPSSRRTTLCGTLDYLPPEMIEGRMHDEKVDLWSLGVLVYEFLVGKPPFEANTYQETYKRISRVEFTFPDFVTEGARDLISRLLKHNPSQRPMLREVLEHPWITANSSK
modifications: disulfide bond between Cys290 of the two monomers
Regarding B2, the binding result in “crystal structure” is “binds”.

B3: t-Aurora A C247V + C319V double mutant, unphosphorylated, catalytically active (used for the disulfide homodimer) (domain or fragment, UniProt Q9ULW0 7-20, looked up)
chain: SYSYDAPSDFINFSSKQKNEESKKRQWALEDFEIGRPLGKGKFGNVYLAREKQSKFILALKVLFKAQLEKAGVEHQLRREVEIQSHLRHPNILRLYGYFHDATRVYLILEYAPLGTVYRELQKLSKFDEQRTATYITELANALSYVHSKRVIHRDIKPENLLLGSAGELKIADFGWSVHAPSSRRTTLCGTLDYLPPEMIEGRMHDEKVDLWSLGVLVYEFLVGKPPFEANTYQETYKRISRVEFTFPDFVTEGARDLISRLLKHNPSQRPMLREVLEHPWITANSSK
Regarding B3, in “cross-linking”, the binding result is on record as “binds”.

For the molecule SYSYDAPSDFINFS (domain or fragment, UniProt Q9ULW0 7-20, looked up) [TPX2 fragment (residues 7 to 20)], the binding result in data set [1] is “binds”.
